The text below walks through data of publication PMC8288866, “MKRN3 regulates the epigenetic switch of mammalian puberty via ubiquitination of MBD3” (National Science Review, 2020).

Data set [1] concerns the target T1, MBD3 (Homo sapiens) (UniProt O95983).
T1 sequence: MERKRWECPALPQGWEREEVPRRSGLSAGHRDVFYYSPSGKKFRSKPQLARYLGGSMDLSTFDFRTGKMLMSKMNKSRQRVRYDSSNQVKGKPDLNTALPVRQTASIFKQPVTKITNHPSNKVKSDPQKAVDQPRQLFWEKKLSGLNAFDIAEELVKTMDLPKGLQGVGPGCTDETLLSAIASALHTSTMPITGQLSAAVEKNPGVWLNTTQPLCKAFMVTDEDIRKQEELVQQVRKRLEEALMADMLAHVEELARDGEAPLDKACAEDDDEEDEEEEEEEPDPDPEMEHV
Briefly: competition. The note with it: EMSA with 32P-labeled PCR probes, binding buffer, salt, pH and temperature not in the material. Background: In EMSA bound probe runs differently from free probe, usually more slowly.

For data set [2], the target named is T1, MBD3 (Homo sapiens). Briefly: EMSA. Conditions: EMSA with 32P-labeled PCR probes, binding buffer, salt, pH and temperature not in the material.
The target in data set [3] is T2, recombinant MKRN3 protein (GST-tagged) (human, UniProt Q13064 1-507).
T2 construct: MKRN3 (Makorin ring finger protein 3), human, E3 ubiquitin ligase; also called Makorin ring finger protein 3; source: recombinant
T2 sequence (looked up): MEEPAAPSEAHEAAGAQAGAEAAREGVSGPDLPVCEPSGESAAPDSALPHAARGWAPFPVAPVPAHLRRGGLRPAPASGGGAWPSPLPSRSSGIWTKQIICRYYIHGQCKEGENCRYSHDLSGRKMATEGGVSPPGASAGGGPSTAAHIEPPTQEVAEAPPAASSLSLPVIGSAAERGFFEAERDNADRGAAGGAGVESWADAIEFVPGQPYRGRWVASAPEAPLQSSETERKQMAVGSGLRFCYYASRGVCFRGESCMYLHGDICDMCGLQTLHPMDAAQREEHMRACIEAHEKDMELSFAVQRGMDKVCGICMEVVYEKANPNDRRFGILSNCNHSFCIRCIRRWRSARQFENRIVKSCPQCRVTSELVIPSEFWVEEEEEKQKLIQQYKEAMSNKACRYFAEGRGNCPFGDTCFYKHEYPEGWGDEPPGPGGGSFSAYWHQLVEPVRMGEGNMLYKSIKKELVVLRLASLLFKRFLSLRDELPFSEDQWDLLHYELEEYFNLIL
Briefly: pull-down; GST pull-down of MKRN3 protein with His6-tagged MBD3, in vitro. The note with it: both partners purified.

Turning to “TTCTTCAGCTTTGGGACTCAGACTGGCTTTCCTTGCTCCTCAGCTTGCGGACGGCCTACTGTGGGACCTTGGGATCGTGTGAGTTAATACTTAATAAACTCTCCTATGTGCGTGTGTTTGTGTGTGTGTGTGTGTGTGTATGTATTCTGTCCCTCTAGAGAATGCTGAGTAATACA (double strand) [GNRH1 promoter 5hmC competitor]”, the binding result with MBD3 (Homo sapiens) [1] (5-hydroxymethylcytosine) is recorded as “binds”. On to “TTCTTCAGCTTTGGGACTCAGACTGGCTTTCCTTGCTCCTCAGCTTGCGGACGGCCTACTGTGGGACCTTGGGATCGTGTGAGTTAATACTTAATAAACTCTCCTATGTGCGTGTGTTTGTGTGTGTGTGTGTGTGTGTATGTATTCTGTCCCTCTAGAGAATGCTGAGTAATACA (double strand) [GNRH1 promoter 5hmC probe]”, for which the binding result with MBD3 (Homo sapiens) [2] (all cytosines 5-hydroxymethylcytosine (PCR with 5hm-dCTP; primer-derived cytosines presumably unmodified)) is on record as “binds”. On to “TTCTTCAGCTTTGGGACTCAGACTGGCTTTCCTTGCTCCTCAGCTTGCGGACGGCCTACTGTGGGACCTTGGGATCGTGTGAGTTAATACTTAATAAACTCTCCTATGTGCGTGTGTTTGTGTGTGTGTGTGTGTGTGTATGTATTCTGTCCCTCTAGAGAATGCTGAGTAATACA (double strand) [GNRH1 promoter 5mC probe]”, for which, in the data set with MBD3 (Homo sapiens) [2] (5-methylcytosine (PCR with 5m-dCTP; primer-derived cytosines presumably unmodified)), the binding result was “no binding”. As to “TTCTTCAGCTTTGGGACTCAGACTGGCTTTCCTTGCTCCTCAGCTTGCGGACGGCCTACTGTGGGACCTTGGGATCGTGTGAGTTAATACTTAATAAACTCTCCTATGTGCGTGTGTTTGTGTGTGTGTGTGTGTGTGTATGTATTCTGTCCCTCTAGAGAATGCTGAGTAATACA (double strand) [GNRH1 promoter unmodified C probe]”, the binding result with MBD3 (Homo sapiens) [2] is “binds more weakly”. “TTCTTCAGCTTTGGGACTCAGACTGGCTTTCCTTGCTCCTCAGCTTGCGGACGGCCTACTGTGGGACCTTGGGATCGTGTGAGTTAATACTTAATAAACTCTCCTATGTGCGTGTGTTTGTGTGTGTGTGTGTGTGTGTATGTATTCTGTCCCTCTAGAGAATGCTGAGTAATACA (double strand) [GNRH1 promoter unmodified competitor]”: the binding result with MBD3 (Homo sapiens) [1] is “binds more weakly”.

B1: His6-tagged MBD3 (natural protein, human, UniProt O95983 1-291, looked up)
chain: MERKRWECPALPQGWEREEVPRRSGLSAGHRDVFYYSPSGKKFRSKPQLARYLGGSMDLSTFDFRTGKMLMSKMNKSRQRVRYDSSNQVKGKPDLNTALPVRQTASIFKQPVTKITNHPSNKVKSDPQKAVDQPRQLFWEKKLSGLNAFDIAEELVKTMDLPKGLQGVGPGCTDETLLSAIASALHTSTMPITGQLSAAVEKNPGVWLNTTQPLCKAFMVTDEDIRKQEELVQQVRKRLEEALMADMLAHVEELARDGEAPLDKACAEDDDEEDEEEEEEEPDPDPEMEHV
notes: MBD3, human; also called recombinant MBD3; recombinant human MBD3 protein; source: recombinant
In the case of B1, the binding result in data set [3] was “binds”.
